Reference: US20070218504A1, “HUMAN LEPTIN-DERIVED POLYPEPTIDES AND USES THEREOF” (UNIVERSITY OF PITTSBURGH, priority 2006, published 2007)

Assays:
[1] = target: T1, recombinant human leptin (Homo sapiens, UniProt P41159); assay: Immuno-precipitation assay of direct binding of human CRP and human leptin; conditions: leptin/CRP mixture and human serum; Western blot with anti-CRP
T1 construct: purchased AF Parlow of NHPP, Torrance, CA
Procedure: To explore a physical interaction between CRP and leptin, the direct binding of these proteins was determined by an immuno-precipitation assay. Rat CRP was purified from fresh rat serum to >95% purity employing a previously established affinity-purification protocol (20). […] The purified human- and rat-CRP proteins were pre-mixed with recombinant human and mouse leptin, respectively, before addition of antibodies specific for human- and mouse-leptin. The concentrations of CRP and leptin in the precipitation reaction were all within the physiological ranges that have been observed in humans or rats (11 & 15). In parallel experiments, recombinant leptin also was pre-mixed with human- or rat-serum to allow for direct interaction prior to immuno-precipitation. The protein precipitates obtained were subjected to Western blot assays using specific anti-CRP antibodies.

[2] = target: T2, long-form human leptin receptor, OB-Rb (Homo sapiens, UniProt P48357); assay: 125I-labeled human leptin binding to OB-Rb on stably transfected HEK293 cells, with or without pre-incubation with human CRP
T2 construct: expressed in transfected cells
T2 sequence (P48357 22-1165): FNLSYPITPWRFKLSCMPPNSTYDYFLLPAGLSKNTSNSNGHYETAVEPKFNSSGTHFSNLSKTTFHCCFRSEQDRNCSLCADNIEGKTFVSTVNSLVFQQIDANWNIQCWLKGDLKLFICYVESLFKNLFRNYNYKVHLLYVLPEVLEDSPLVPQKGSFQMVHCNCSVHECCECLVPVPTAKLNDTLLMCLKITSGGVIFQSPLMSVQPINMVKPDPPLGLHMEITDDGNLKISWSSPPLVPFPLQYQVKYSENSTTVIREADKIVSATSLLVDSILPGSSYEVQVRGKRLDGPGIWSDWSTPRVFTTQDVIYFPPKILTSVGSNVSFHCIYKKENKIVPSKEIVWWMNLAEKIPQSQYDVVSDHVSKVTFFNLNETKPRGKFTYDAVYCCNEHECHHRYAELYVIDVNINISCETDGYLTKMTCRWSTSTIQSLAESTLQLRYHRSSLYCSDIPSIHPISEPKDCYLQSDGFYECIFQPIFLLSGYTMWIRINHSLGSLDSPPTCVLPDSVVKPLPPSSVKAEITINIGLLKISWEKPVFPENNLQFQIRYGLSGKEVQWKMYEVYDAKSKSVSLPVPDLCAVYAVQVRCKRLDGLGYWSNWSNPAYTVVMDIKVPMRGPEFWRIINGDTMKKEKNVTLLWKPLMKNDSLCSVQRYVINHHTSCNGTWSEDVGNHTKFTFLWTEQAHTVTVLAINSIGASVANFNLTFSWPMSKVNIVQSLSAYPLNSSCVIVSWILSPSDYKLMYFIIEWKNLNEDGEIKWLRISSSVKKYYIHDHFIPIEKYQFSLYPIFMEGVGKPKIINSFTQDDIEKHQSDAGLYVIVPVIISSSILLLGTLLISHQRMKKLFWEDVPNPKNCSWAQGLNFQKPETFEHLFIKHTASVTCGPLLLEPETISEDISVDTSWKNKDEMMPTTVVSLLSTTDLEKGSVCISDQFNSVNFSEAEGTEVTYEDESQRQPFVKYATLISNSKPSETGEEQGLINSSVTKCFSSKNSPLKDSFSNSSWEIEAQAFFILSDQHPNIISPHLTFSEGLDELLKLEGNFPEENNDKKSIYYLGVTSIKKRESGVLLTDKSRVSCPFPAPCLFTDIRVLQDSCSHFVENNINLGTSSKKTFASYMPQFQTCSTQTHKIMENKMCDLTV
Procedure: FIG. 4A. Interference effect of human CRP on human leptin binding to its receptor. HEK293 cells stably transfected with the long-form human leptin receptor, OB-Rb (14), are used to examine whether human CRP interferes with the ability of human leptin to bind to its receptor. […] The dashed line at the bottom right of the graph indicates ^125I-leptin bound when two thousand fold excess of non-labeled leptin is added.
To examine if CRP binding interferes with the stability of human leptin to bind to its receptors, a HEK293 cell line stably transfected with the long-form human leptin receptor, OB—Rb, was used (17). Human leptin was iodinated with Na^125I using the lodogen method. Briefly, 15 μg of recombinant human leptin in 100 mM Phosphate buffer pH 7.5 were incubated with 1 mCi of carrier-free Na^125I (2200 Ci/mmol) in a glass tube containing 50 μg Iodogen. After 10-minute incubation at room temperature, the reaction was stopped with 100 μl 0.1% trifluoroacetic acid (TFA). The reaction mixture was immediately purified by reverse-phase HPLC. The separation employed a 5-minute isocratic step at 20% eluant B in A, followed by two consecutive 30 min linear gradients from 20 to 50%, then from 50 to 60% eluant B in A (where eluant A is water containing 0.1% TFA and eluant B is acetonitrile containing 0.1% TFA) at a flow rate of 1.5 ml/min. […]

T1 sequence (P41159 22-167): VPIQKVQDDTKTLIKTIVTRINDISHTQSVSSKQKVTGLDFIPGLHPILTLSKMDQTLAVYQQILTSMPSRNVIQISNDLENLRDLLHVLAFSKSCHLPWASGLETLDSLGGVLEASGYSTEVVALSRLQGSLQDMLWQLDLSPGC

Row | Substance | co-precipitation of CRP with anti-human leptin antibody [1] | IC50 of human CRP for reducing 125I-labeled human leptin binding to its receptor ([2]; in the presence of about 2 ng/ml human leptin, 1 hour pre-incubation) | Kd ([2]; HEK293 cells stably transfected with OB-Rb) [nM]
1 | human CRP: human C-reactive protein, purified preparation from a commercial source | could pull down human CRP | approximately 80 ng/ml | 
2 | human leptin: human recombinant leptin |  |  | 1
